From paper PMC10397247
Where two headings read alike, the source gives them in different places.

Key:
[1] = target: T1, 4H797-bA; experiment: two-hybrid library CCNG1;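 further: natural log of median RNA to DNA barcode read ratio; higher means stronger binding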
T1 chain: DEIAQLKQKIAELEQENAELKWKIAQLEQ

[2] = target: T2, 4H4073-bA; experiment: two-hybrid library CCNG1;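 further: natural log of median RNA to DNA barcode read ratio; higher means stronger binding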
T2 chain: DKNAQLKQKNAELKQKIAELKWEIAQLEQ

[3] = target: T3, 4H918-bA; experiment: two-hybrid library CCNG1;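 further: natural log of median RNA to DNA barcode read ratio; higher means stronger binding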
T3 chain: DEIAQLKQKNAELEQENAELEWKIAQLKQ

[4] = target: T4, 4H3926-bA; experiment: two-hybrid library CCNG1; details: mean of both orientations;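 further: natural log of median RNA to DNA barcode read ratio; higher means stronger binding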
T4 chain: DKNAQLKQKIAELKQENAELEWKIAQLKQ

[5] = target: T5, 4H754-bA; experiment: two-hybrid library CCNG1
T5 chain: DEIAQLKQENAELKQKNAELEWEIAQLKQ

[6] = target: T6, 4H683-bA; experiment: two-hybrid library CCNG1
T6 chain: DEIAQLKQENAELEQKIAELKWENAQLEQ

[7] = target: T7, 4H591-bA; experiment: two-hybrid library CCNG1
T7 chain: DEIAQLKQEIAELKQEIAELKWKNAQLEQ

[8] = target: T8, 4H906-bA; experiment: two-hybrid library CCNG1
T8 chain: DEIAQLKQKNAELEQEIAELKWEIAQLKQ

[9] = target: T9, 4H457-bA; experiment: two-hybrid library CCNG1
T9 chain: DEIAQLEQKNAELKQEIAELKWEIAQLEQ

[10] = target: T10, 4H855-bA; experiment: two-hybrid library CCNG1
T10 chain: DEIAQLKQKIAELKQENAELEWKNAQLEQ

[11] = target: T11, 4H780-bA; experiment: two-hybrid library CCNG1
T11 chain: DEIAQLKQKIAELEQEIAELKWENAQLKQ

[12] = target: T12, 4H626-bA; experiment: two-hybrid library CCNG1
T12 chain: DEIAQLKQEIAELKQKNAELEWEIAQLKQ

[13] = target: T13, 4H575-bA; experiment: two-hybrid library CCNG1
T13 chain: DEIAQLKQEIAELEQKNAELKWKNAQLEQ

[14] = target: T14, 4H953-bA; experiment: two-hybrid library CCNG1
T14 chain: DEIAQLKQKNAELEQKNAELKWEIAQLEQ

[15] = target: T15, 4H968-bA; experiment: two-hybrid library CCNG1
T15 chain: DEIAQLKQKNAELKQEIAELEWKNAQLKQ

[16] = target: T16, O9-bP; experiment: two-hybrid library CCNG1
T16 chain: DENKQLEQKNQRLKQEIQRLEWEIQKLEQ

[17] = target: T17, O8-bP; experiment: two-hybrid library CCNG1
T17 chain: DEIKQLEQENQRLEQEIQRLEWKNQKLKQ

[18] = target: T18, 4H850-bA; experiment: two-hybrid library CCNG1
T18 chain: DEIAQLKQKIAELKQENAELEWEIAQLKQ

[19] = target: T19, 4H619-bA; experiment: two-hybrid library CCNG1
T19 chain: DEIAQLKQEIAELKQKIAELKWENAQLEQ

[20] = target: T20, 4H570-bA; experiment: two-hybrid library CCNG1
T20 chain: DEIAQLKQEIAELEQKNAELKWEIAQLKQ

[21] = target: T21, 4H3974-bA; experiment: two-hybrid library CCNG1
T21 chain: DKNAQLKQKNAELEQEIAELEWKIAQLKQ

[22] = target: T22, 4H584-bA; experiment: two-hybrid library CCNG1
T22 chain: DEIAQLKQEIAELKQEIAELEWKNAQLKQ

[23] = target: T23, 4H619-bN; experiment: two-hybrid library CCNG1
T23 chain: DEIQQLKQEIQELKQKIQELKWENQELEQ

[24] = target: T24, 4H850-bN; experiment: two-hybrid library CCNG1
T24 chain: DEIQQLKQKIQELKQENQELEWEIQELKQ

[25] = target: T25, 4H570-bN; experiment: two-hybrid library CCNG1
T25 chain: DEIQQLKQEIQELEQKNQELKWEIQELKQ

[26] = target: T26, 4H3974-bN; experiment: two-hybrid library CCNG1
T26 chain: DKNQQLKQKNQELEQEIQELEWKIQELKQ

[27] = target: T27, 4H906-bN; experiment: two-hybrid library CCNG1
T27 chain: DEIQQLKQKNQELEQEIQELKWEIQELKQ

[28] = target: T28, 4H584-bN; experiment: two-hybrid library CCNG1
T28 chain: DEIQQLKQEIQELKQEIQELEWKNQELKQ

[29] = target: T29, 4H591-bN; experiment: two-hybrid library CCNG1
T29 chain: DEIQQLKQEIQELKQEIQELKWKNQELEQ

[30] = target: T30, 4H4073-bH; experiment: two-hybrid library CCNG1
T30 chain: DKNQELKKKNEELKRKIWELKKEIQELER

[31] = target: T31, 4H683-bH; experiment: two-hybrid library CCNG1
T31 chain: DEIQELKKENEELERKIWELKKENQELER

[32] = target: T32, 4H754-bH; experiment: two-hybrid library CCNG1
T32 chain: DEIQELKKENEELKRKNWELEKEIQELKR

[33] = target: T33, 4H780-bH; experiment: two-hybrid library CCNG1
T33 chain: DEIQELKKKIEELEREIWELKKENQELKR

[34] = target: T34, 4H953-bH; experiment: two-hybrid library CCNG1
T34 chain: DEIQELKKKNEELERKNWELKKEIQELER

[35] = target: T35, 4H855-bH; experiment: two-hybrid library CCNG1
T35 chain: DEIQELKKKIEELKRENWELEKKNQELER

[36] = target: T36, 4H797-bH; experiment: two-hybrid library CCNG1
T36 chain: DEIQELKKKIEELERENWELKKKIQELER

[37] = target: T37, 4H968-bH; experiment: two-hybrid library CCNG1
T37 chain: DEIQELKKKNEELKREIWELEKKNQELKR

[38] = target: T38, 4H575-bH; experiment: two-hybrid library CCNG1
T38 chain: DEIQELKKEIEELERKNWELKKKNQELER

[39] = target: T39, 4H457-bH; experiment: two-hybrid library CCNG1
T39 chain: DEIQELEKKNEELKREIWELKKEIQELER

[40] = target: T40, 4H918-bH; experiment: two-hybrid library CCNG1
T40 chain: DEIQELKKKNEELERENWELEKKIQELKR

[41] = target: T41, 4H906-bH; experiment: two-hybrid library CCNG1
T41 chain: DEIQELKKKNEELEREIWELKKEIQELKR

[42] = target: T42, 4H3926-bH; experiment: two-hybrid library CCNG1; details: mean of both orientations
T42 chain: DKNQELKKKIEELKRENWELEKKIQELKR

[43] = target: T43, 4H568-bA; experiment: two-hybrid library CCNG1
T43 chain: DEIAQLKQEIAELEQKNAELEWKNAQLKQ

[44] = target: T44, 4H591-bH; experiment: two-hybrid library CCNG1
T44 chain: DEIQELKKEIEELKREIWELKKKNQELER

[45] = target: T45, 4H626-bH; experiment: two-hybrid library CCNG1
T45 chain: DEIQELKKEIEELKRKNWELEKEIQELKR

[46] = target: T46, P8mS; experiment: two-hybrid library CC1; details: mean of both orientations
T46 chain: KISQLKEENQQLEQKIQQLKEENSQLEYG

[47] = target: T47, P8; experiment: two-hybrid library CC1; details: mean of both orientations
T47 chain: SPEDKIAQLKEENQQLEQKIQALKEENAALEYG

[48] = target: T48, P7mS; experiment: two-hybrid library CC1
T48 chain: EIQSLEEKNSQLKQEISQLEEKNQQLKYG

[49] = target: T49, P9; experiment: two-hybrid library CC1; details: mean of both orientations
T49 chain: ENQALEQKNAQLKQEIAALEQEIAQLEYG

[50] = target: T50, 4H58-AA; experiment: two-hybrid library CCmax; details: mean of both orientations
T50 chain: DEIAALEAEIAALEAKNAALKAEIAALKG

[51] = target: T51, 4H895-AA; experiment: two-hybrid library CCmax; details: mean of both orientations
T51 chain: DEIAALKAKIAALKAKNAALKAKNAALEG

[52] = target: GCN2_T; experiment: two-hybrid library CCmax
[53] = target: T52, 4H_BCR; experiment: two-hybrid library CCmax; details: mean of both orientations
T52 chain: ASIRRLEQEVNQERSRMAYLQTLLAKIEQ

[54] = target: 4H_GCN4; experiment: two-hybrid library CCmax
Chain of 4H_GCN4 (chain, as listed by the source): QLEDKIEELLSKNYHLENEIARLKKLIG

[55] = target: T53, 4H535-AA; experiment: two-hybrid library CCmax; details: mean of both orientations
T53 chain: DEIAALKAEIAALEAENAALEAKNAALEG

[56] = target: T54, 4H_APH; experiment: two-hybrid library CCmax
T54 chain: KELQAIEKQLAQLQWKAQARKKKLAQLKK

[57] = target: T55, 4H486-AA; experiment: two-hybrid library CCmax
T55 chain: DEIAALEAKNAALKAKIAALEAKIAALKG

DKNAQLKQKIAELKQENAELEWKIAQLKQ [4H3926-bA]
interaction score [1]: 0 | interaction score [2]: -0.409 | interaction score [3]: -0.539 | interaction score [4]: -0.117 | interaction score [5]: -0.909 | interaction score [6]: -0.786 | interaction score [7]: -1.19 | interaction score [8]: -1.13 | interaction score [9]: 0.866 | interaction score [10]: -1.23 | interaction score [11]: -0.771 | interaction score [12]: -0.259 | interaction score [13]: 0.34 | interaction score [14]: 0.769 | interaction score [15]: 1.59

DEIKQLEQENQRLEQEIQRLEWKNQKLKQ [O8-bP]
interaction score [16]: -0.57 | interaction score [17]: -1.1

DKNAQLKQKNAELEQEIAELEWKIAQLKQ [4H3974-bA]
interaction score [18]: -1.84 | interaction score [19]: -0.503 | interaction score [8]: -1.37 | interaction score [20]: -0.136 | interaction score [21]: -0.293 | interaction score [22]: -1.38

DKNQQLKQKNQELEQEIQELEWKIQELKQ [4H3974-bN]
interaction score [23]: -0.273 | interaction score [24]: 0.5 | interaction score [25]: -1.69 | interaction score [26]: -0.444 | interaction score [27]: -0.832 | interaction score [28]: -0.919

DEIAQLKQEIAELKQEIAELEWKNAQLKQ [4H584-bA]
interaction score [18]: 0.521 | interaction score [19]: 1.1 | interaction score [8]: -0.288 | interaction score [22]: 0.598 | interaction score [29]: -0.664

DKNQELKKKNEELKRKIWELKKEIQELER [4H4073-bH]
interaction score [30]: -0.834 | interaction score [31]: -0.249 | interaction score [32]: -1.38 | interaction score [18]: -2.46 | interaction score [33]: -0.609 | interaction score [34]: -1.39 | interaction score [35]: -1.09 | interaction score [36]: -0.554 | interaction score [37]: -1.06 | interaction score [38]: -1.03 | interaction score [39]: -0.419

DEIQQLKQEIQELKQEIQELEWKNQELKQ [4H584-bN]
interaction score [23]: 1.21 | interaction score [24]: 0.196 | interaction score [27]: -0.43 | interaction score [28]: 0.406

DEIQELEKKNEELKREIWELKKEIQELER [4H457-bH]
interaction score [31]: -0.297 | interaction score [40]: -0.832 | interaction score [32]: -0.826 | interaction score [33]: -1.57 | interaction score [34]: -0.857 | interaction score [35]: -1.6 | interaction score [36]: -0.848 | interaction score [37]: 0.389 | interaction score [38]: -1.98 | interaction score [15]: 0.553 | interaction score [39]: 0.207

DKNQELKKKIEELKRENWELEKKIQELKR [4H3926-bH]
interaction score [41]: -1.18 | interaction score [30]: -0.649 | interaction score [31]: -0.233 | interaction score [32]: 0.0882 | interaction score [33]: -0.369 | interaction score [34]: 1.52 | interaction score [35]: -0.798 | interaction score [42]: 0.997 | interaction score [36]: 0.147 | interaction score [43]: 0.77 | interaction score [37]: 1.04 | interaction score [38]: -0.061 | interaction score [44]: -1.8 | interaction score [39]: 0.423 | interaction score [45]: -1.31

EIQSLEEKNSQLKQEISQLEEKNQQLKYG [P7mS]
interaction score [46]: -0.225 | interaction score [47]: 0.285 | interaction score [48]: -2.53 | interaction score [49]: -2.27

DENKQLEQKNQRLKQEIQRLEWEIQKLEQ [O9-bP]
interaction score ([16]; mean of both orientations): -0.872

DEIAALEAKNAALKAKIAALEAKIAALKG [4H486-AA]
interaction score [50]: -0.289 | interaction score [51]: -1.84 | interaction score [52]: -0.249 | interaction score [53]: -1.34 | interaction score [54]: -1.06 | interaction score [55]: -1.16 | interaction score [56]: -1.97 | interaction score [57]: 0.819
